# Measurements taken from the supplement of paper PMC11908140.
# B1: library; numbered along this chain (parent)
# chain: MRKPRAAVGSGHRKQAASQEGRQKHAKNNSQAKPSACDGLARQPEEVVLQASVSSYHLFRDVAEVTAFRGSLLSWYDQEKRDLPWRRRAEDEMDLDRRAYAVWVSEVMLQQTQVATVINYYTGWMQKWPTLQDLASASLEEVNQLWAGLGYYSRGRRLQEGARKVVEELGGHMPRTAETLQQLLPGVGRYTAGAIASIAFGQATGVVDGNVARVLCRVRAIGADPSSTLVSQQLWGLAQQLVDPARPGDFNQAAMELGATVCTPQRPLCSQCPVESLCRARQRVEQEQLLASGSLSGSPDVEECAPNTGQCHLCLPPSEPWDQTLGVVNFPRKASRKPPREESSATCVLEQPGALGAQILLVQRPNSGLLAGLWEFPSVTWEPSEQLQRKALLQELQRWAGPLPATHLRHLGEVVHTFSHIKLTYQVYGLALEGQTPVTTVPPGARWLTQEEFHTAAVSTAMKKVFRVYQGQQPGTCMGSKRSQVSSPCSRKKPRMGQQVLDNFFRSHISTDAHSLNSAAQ
# Variants of: B1
# Assay: 8OG:A repair function score (normalized; synonymous = 0, nonsense = -1) (normalized log-likelihood score); higher = more repair activity (WT-like)
# Conditions: with 8OG:A DNA repair reporter (GFP) in HEK-293 MUTYH KO cells
# In short: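 Lentiviral MUTYH cDNA NNN codon-scan libraries were expressed in MUTYH knockout HEK-293 cells with 10 pg/ml doxycycline, and the cells received an 8OG:A GFP repair reporter together with mCherry. At 72 h, viable mCherry+ cells went into GFP+ (repair) or GFP− bins, three replicates per tile, before tile amplicons were sequenced. A repair function score was then built from per-tile Rosace fitness scores, anchored on the synonymous and nonsense distributions. Synonymous medians sat at 0 and nonsense at -1, and variants under 300 counts per million at the start were left out.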
# 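Note: cells sorted at 72 h after reporter transfection.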
row,Variant,8OG:A repair function score
1,MRKPRAAVGSGHRKQAASQEGRQKHAKNNSQAKPSACDGLARQPEEVVLQASVSSYHLFRDVAEVTAFRGSLLSWYDQEKRDLPWRRRAEDEMDLDRRAYAVWVSEVMLQQTQVATVINYYTGWMQKWPTLQDLASASLEEVNQLWAGLGYYSRGRRLQEGARKVVEELGGHMPRTAETLQQLLPGVGRYTAGAIASIAFGQATGVVDGNVARVLCRVRAIGADPSSTLVSQQLWGLAQQLVDPARPGDFNQAAMELGATVCTPQRPLCSQCPVESLCRARQRVEQEQLLASGSLSGSPDVEECAPNTGQCHLCLPPSEPWDQTLGVVNFPRKASRKPPREESSATCVLEQPGALGAQILLVQRPNSGLLAGLWEFPSVTWEPSEQLQRKALLQELQRWAGPLPATHLRHLGEVVHTFSHIKLTYQVYGLALEGQTPVTTVPPGARWLTQEEFHTAAVSTAMKKVFRVYQGQQPGTCMGSKRSQVSSPCSRKKPRMRQQVLDNFFRSHISTDAHSLNSAAQ [G497R],-0.0166
2,MRKPRAAVGSGHRKQAASQEGRQKHAKNNSQAKPSACDGLARQPEEVVLQASVSSYHLFRDVAEVTAFRGSLLSWYDQEKRDLPWRRRAEDEMDLDRRAYAVWVSEVMLQQTQVATVINYYTGWMQKWPTLQDLASASLEEVNQLWAGLGYYSRGRRLQEGARKVVEELGGHMPRTAETLQQLLPGVGRYTAGAIASIAFGQATGVVDGNVARVLCRVRAIGADPSSTLVSQQLWGLAQQLVDPARPGDFNQAAMELGATVCTPQRPLCSQCPVESLCRARQRVEQEQLLASGSLSGSPDVEECAPNTGQCHLCLPPSEPWDQTLGVVNFPRKASRKPPREESSATCVLEQPGALGAQILLVQRPNSGLLAGLWEFPSVTWEPSEQLQRKALLQELQRWAGPLPATHLRHLGEVVHTFSHIKLTYQVYGLALEGQTPVTTVPPGARWLTQEEFHTAAVSTAMKKVFRVYQGQQPGTCMGSKRSQVSSPCSRKKPRMPQQVLDNFFRSHISTDAHSLNSAAQ [G497P],-0.0806
3,MRKPRAAVGSGHRKQAASQEGRQKHAKNNSQAKPSACDGLARQPEEVVLQASVSSYHLFRDVAEVTAFRGSLLSWYDQEKRDLPWRRRAEDEMDLDRRAYAVWVSEVMLQQTQVATVINYYTGWMQKWPTLQDLASASLEEVNQLWAGLGYYSRGRRLQEGARKVVEELGGHMPRTAETLQQLLPGVGRYTAGAIASIAFGQATGVVDGNVARVLCRVRAIGADPSSTLVSQQLWGLAQQLVDPARPGDFNQAAMELGATVCTPQRPLCSQCPVESLCRARQRVEQEQLLASGSLSGSPDVEECAPNTGQCHLCLPPSEPWDQTLGVVNFPRKASRKPPREESSATCVLEQPGALGAQILLVQRPNSGLLAGLWEFPSVTWEPSEQLQRKALLQELQRWAGPLPATHLRHLGEVVHTFSHIKLTYQVYGLALEGQTPVTTVPPGARWLTQEEFHTAAVSTAMKKVFRVYQGQQPGTCMGSKRSQVSSPCSRKKPRMEQQVLDNFFRSHISTDAHSLNSAAQ [G497E],0.00606
4,MRKPRAAVGSGHRKQAASQEGRQKHAKNNSQAKPSACDGLARQPEEVVLQASVSSYHLFRDVAEVTAFRGSLLSWYDQEKRDLPWRRRAEDEMDLDRRAYAVWVSEVMLQQTQVATVINYYTGWMQKWPTLQDLASASLEEVNQLWAGLGYYSRGRRLQEGARKVVEELGGHMPRTAETLQQLLPGVGRYTAGAIASIAFGQATGVVDGNVARVLCRVRAIGADPSSTLVSQQLWGLAQQLVDPARPGDFNQAAMELGATVCTPQRPLCSQCPVESLCRARQRVEQEQLLASGSLSGSPDVEECAPNTGQCHLCLPPSEPWDQTLGVVNFPRKASRKPPREESSATCVLEQPGALGAQILLVQRPNSGLLAGLWEFPSVTWEPSEQLQRKALLQELQRWAGPLPATHLRHLGEVVHTFSHIKLTYQVYGLALEGQTPVTTVPPGARWLTQEEFHTAAVSTAMKKVFRVYQGQQPGTCMGSKRSQVSSPCSRKKPRMNQQVLDNFFRSHISTDAHSLNSAAQ [G497N],0.0269
5,MRKPRAAVGSGHRKQAASQEGRQKHAKNNSQAKPSACDGLARQPEEVVLQASVSSYHLFRDVAEVTAFRGSLLSWYDQEKRDLPWRRRAEDEMDLDRRAYAVWVSEVMLQQTQVATVINYYTGWMQKWPTLQDLASASLEEVNQLWAGLGYYSRGRRLQEGARKVVEELGGHMPRTAETLQQLLPGVGRYTAGAIASIAFGQATGVVDGNVARVLCRVRAIGADPSSTLVSQQLWGLAQQLVDPARPGDFNQAAMELGATVCTPQRPLCSQCPVESLCRARQRVEQEQLLASGSLSGSPDVEECAPNTGQCHLCLPPSEPWDQTLGVVNFPRKASRKPPREESSATCVLEQPGALGAQILLVQRPNSGLLAGLWEFPSVTWEPSEQLQRKALLQELQRWAGPLPATHLRHLGEVVHTFSHIKLTYQVYGLALEGQTPVTTVPPGARWLTQEEFHTAAVSTAMKKVFRVYQGQQPGTCMGSKRSQVSSPCSRKKPRMKQQVLDNFFRSHISTDAHSLNSAAQ [G497K],0.0129
6,MRKPRAAVGSGHRKQAASQEGRQKHAKNNSQAKPSACDGLARQPEEVVLQASVSSYHLFRDVAEVTAFRGSLLSWYDQEKRDLPWRRRAEDEMDLDRRAYAVWVSEVMLQQTQVATVINYYTGWMQKWPTLQDLASASLEEVNQLWAGLGYYSRGRRLQEGARKVVEELGGHMPRTAETLQQLLPGVGRYTAGAIASIAFGQATGVVDGNVARVLCRVRAIGADPSSTLVSQQLWGLAQQLVDPARPGDFNQAAMELGATVCTPQRPLCSQCPVESLCRARQRVEQEQLLASGSLSGSPDVEECAPNTGQCHLCLPPSEPWDQTLGVVNFPRKASRKPPREESSATCVLEQPGALGAQILLVQRPNSGLLAGLWEFPSVTWEPSEQLQRKALLQELQRWAGPLPATHLRHLGEVVHTFSHIKLTYQVYGLALEGQTPVTTVPPGARWLTQEEFHTAAVSTAMKKVFRVYQGQQPGTCMGSKRSQVSSPCSRKKPRMFQQVLDNFFRSHISTDAHSLNSAAQ [G497F],-0.0315
7,MRKPRAAVGSGHRKQAASQEGRQKHAKNNSQAKPSACDGLARQPEEVVLQASVSSYHLFRDVAEVTAFRGSLLSWYDQEKRDLPWRRRAEDEMDLDRRAYAVWVSEVMLQQTQVATVINYYTGWMQKWPTLQDLASASLEEVNQLWAGLGYYSRGRRLQEGARKVVEELGGHMPRTAETLQQLLPGVGRYTAGAIASIAFGQATGVVDGNVARVLCRVRAIGADPSSTLVSQQLWGLAQQLVDPARPGDFNQAAMELGATVCTPQRPLCSQCPVESLCRARQRVEQEQLLASGSLSGSPDVEECAPNTGQCHLCLPPSEPWDQTLGVVNFPRKASRKPPREESSATCVLEQPGALGAQILLVQRPNSGLLAGLWEFPSVTWEPSEQLQRKALLQELQRWAGPLPATHLRHLGEVVHTFSHIKLTYQVYGLALEGQTPVTTVPPGARWLTQEEFHTAAVSTAMKKVFRVYQGQQPGTCMGSKRSQVSSPCSRKKPRMTQQVLDNFFRSHISTDAHSLNSAAQ [G497T],-0.00191
8,MRKPRAAVGSGHRKQAASQEGRQKHAKNNSQAKPSACDGLARQPEEVVLQASVSSYHLFRDVAEVTAFRGSLLSWYDQEKRDLPWRRRAEDEMDLDRRAYAVWVSEVMLQQTQVATVINYYTGWMQKWPTLQDLASASLEEVNQLWAGLGYYSRGRRLQEGARKVVEELGGHMPRTAETLQQLLPGVGRYTAGAIASIAFGQATGVVDGNVARVLCRVRAIGADPSSTLVSQQLWGLAQQLVDPARPGDFNQAAMELGATVCTPQRPLCSQCPVESLCRARQRVEQEQLLASGSLSGSPDVEECAPNTGQCHLCLPPSEPWDQTLGVVNFPRKASRKPPREESSATCVLEQPGALGAQILLVQRPNSGLLAGLWEFPSVTWEPSEQLQRKALLQELQRWAGPLPATHLRHLGEVVHTFSHIKLTYQVYGLALEGQTPVTTVPPGARWLTQEEFHTAAVSTAMKKVFRVYQGQQPGTCMGSKRSQVSSPCSRKKPRMIQQVLDNFFRSHISTDAHSLNSAAQ [G497I],-0.0179
9,MRKPRAAVGSGHRKQAASQEGRQKHAKNNSQAKPSACDGLARQPEEVVLQASVSSYHLFRDVAEVTAFRGSLLSWYDQEKRDLPWRRRAEDEMDLDRRAYAVWVSEVMLQQTQVATVINYYTGWMQKWPTLQDLASASLEEVNQLWAGLGYYSRGRRLQEGARKVVEELGGHMPRTAETLQQLLPGVGRYTAGAIASIAFGQATGVVDGNVARVLCRVRAIGADPSSTLVSQQLWGLAQQLVDPARPGDFNQAAMELGATVCTPQRPLCSQCPVESLCRARQRVEQEQLLASGSLSGSPDVEECAPNTGQCHLCLPPSEPWDQTLGVVNFPRKASRKPPREESSATCVLEQPGALGAQILLVQRPNSGLLAGLWEFPSVTWEPSEQLQRKALLQELQRWAGPLPATHLRHLGEVVHTFSHIKLTYQVYGLALEGQTPVTTVPPGARWLTQEEFHTAAVSTAMKKVFRVYQGQQPGTCMGSKRSQVSSPCSRKKPRMLQQVLDNFFRSHISTDAHSLNSAAQ [G497L],-0.0147
10,MRKPRAAVGSGHRKQAASQEGRQKHAKNNSQAKPSACDGLARQPEEVVLQASVSSYHLFRDVAEVTAFRGSLLSWYDQEKRDLPWRRRAEDEMDLDRRAYAVWVSEVMLQQTQVATVINYYTGWMQKWPTLQDLASASLEEVNQLWAGLGYYSRGRRLQEGARKVVEELGGHMPRTAETLQQLLPGVGRYTAGAIASIAFGQATGVVDGNVARVLCRVRAIGADPSSTLVSQQLWGLAQQLVDPARPGDFNQAAMELGATVCTPQRPLCSQCPVESLCRARQRVEQEQLLASGSLSGSPDVEECAPNTGQCHLCLPPSEPWDQTLGVVNFPRKASRKPPREESSATCVLEQPGALGAQILLVQRPNSGLLAGLWEFPSVTWEPSEQLQRKALLQELQRWAGPLPATHLRHLGEVVHTFSHIKLTYQVYGLALEGQTPVTTVPPGARWLTQEEFHTAAVSTAMKKVFRVYQGQQPGTCMGSKRSQVSSPCSRKKPRMHQQVLDNFFRSHISTDAHSLNSAAQ [G497H],-0.0394
11,MRKPRAAVGSGHRKQAASQEGRQKHAKNNSQAKPSACDGLARQPEEVVLQASVSSYHLFRDVAEVTAFRGSLLSWYDQEKRDLPWRRRAEDEMDLDRRAYAVWVSEVMLQQTQVATVINYYTGWMQKWPTLQDLASASLEEVNQLWAGLGYYSRGRRLQEGARKVVEELGGHMPRTAETLQQLLPGVGRYTAGAIASIAFGQATGVVDGNVARVLCRVRAIGADPSSTLVSQQLWGLAQQLVDPARPGDFNQAAMELGATVCTPQRPLCSQCPVESLCRARQRVEQEQLLASGSLSGSPDVEECAPNTGQCHLCLPPSEPWDQTLGVVNFPRKASRKPPREESSATCVLEQPGALGAQILLVQRPNSGLLAGLWEFPSVTWEPSEQLQRKALLQELQRWAGPLPATHLRHLGEVVHTFSHIKLTYQVYGLALEGQTPVTTVPPGARWLTQEEFHTAAVSTAMKKVFRVYQGQQPGTCMGSKRSQVSSPCSRKKPRMSQQVLDNFFRSHISTDAHSLNSAAQ [G497S],-0.0201
12,MRKPRAAVGSGHRKQAASQEGRQKHAKNNSQAKPSACDGLARQPEEVVLQASVSSYHLFRDVAEVTAFRGSLLSWYDQEKRDLPWRRRAEDEMDLDRRAYAVWVSEVMLQQTQVATVINYYTGWMQKWPTLQDLASASLEEVNQLWAGLGYYSRGRRLQEGARKVVEELGGHMPRTAETLQQLLPGVGRYTAGAIASIAFGQATGVVDGNVARVLCRVRAIGADPSSTLVSQQLWGLAQQLVDPARPGDFNQAAMELGATVCTPQRPLCSQCPVESLCRARQRVEQEQLLASGSLSGSPDVEECAPNTGQCHLCLPPSEPWDQTLGVVNFPRKASRKPPREESSATCVLEQPGALGAQILLVQRPNSGLLAGLWEFPSVTWEPSEQLQRKALLQELQRWAGPLPATHLRHLGEVVHTFSHIKLTYQVYGLALEGQTPVTTVPPGARWLTQEEFHTAAVSTAMKKVFRVYQGQQPGTCMGSKRSQVSSPCSRKKPRMMQQVLDNFFRSHISTDAHSLNSAAQ [G497M],-0.0577
